Test results taken from the supplement of paper PMC9732359.
± gives the uncertainty stated by the source.

Assay: protein stability index of a GFP-peptide fusion (yeast GPS) (PSI 1-4); higher = more stable; sorted into four equal gates, so the index is relative within each strain
Summary of the method: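 Peptides tiling yeast proteins in 17-residue segments were fused downstream of GFP, with Cherry expressed from the same plasmid. As a pooled library in yeast, mid-log cultures grown in leucine-free medium were sorted into four equal gates by GFP/Cherry fluorescence ratio. Gate plasmids were PCR-amplified and Illumina-sequenced, and barcodes linked reads to strains. Each peptide received a protein stability index equal to the sum of each gate's read frequency times its gate number.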

Sequence: GQFVTLGCTLVTLLANV [RMP1]
- protein stability index (doa10∆): 2.8 ± 0.11
- protein stability index (pdr5∆): 2.89 ± 0.11
- protein stability index (san1∆): 2.73 ± 0.1
- protein stability index (ubr1∆): 2.58 ± 0.048

Sequence: GQQKIILSKKWGFTNLD [RPL10]
- protein stability index (doa10∆): 2.68 ± 0.22
- protein stability index (ubr1∆): 2.29 ± 0.21

Sequence: GQRPDRATTYEKLTMVF [SIN4]
- protein stability index (doa10∆): 1.27 ± 0.087
- protein stability index (pdr5∆): 1.48 ± 0.067
- protein stability index (san1∆): 1.53 ± 0.19
- protein stability index (ubr1∆): 1.14 ± 0.11

Sequence: GQVSMSQFNGSGNGSNP [PGD1]
- protein stability index (doa10∆): 3.3 ± 0.11
- protein stability index (pdr5∆): 3.3 ± 0.12
- protein stability index (san1∆): 2.93 ± 0.077
- protein stability index (ubr1∆): 3.2 ± 0.068

Sequence: GRETILSNFNADINLEE [SIR3]
- protein stability index (doa10∆): 3.14 ± 0.094
- protein stability index (pdr5∆): 3.17 ± 0.11
- protein stability index (san1∆): 2.85 ± 0.067
- protein stability index (ubr1∆): 2.99 ± 0.07

Sequence: GRKHVAALRTVKSLVDN [RPL9A]
- protein stability index (doa10∆): 2.99 ± 0.12
- protein stability index (pdr5∆): 3.17 ± 0.079
- protein stability index (san1∆): 2.91 ± 0.092
- protein stability index (ubr1∆): 2.96 ± 0.071

Sequence: GRLASTIAKQVLNGQKI [RPL16B]
- protein stability index (doa10∆): 3.42 ± 0.28
- protein stability index (pdr5∆): 2.69 ± 0.11
- protein stability index (ubr1∆): 2.58 ± 0.13

Sequence: GRLEIFKIHTAKVKKTG [RPT4]
- protein stability index (doa10∆): 2.13 ± 0.11
- protein stability index (pdr5∆): 2.89 ± 0.12
- protein stability index (san1∆): 2.33 ± 0.19
- protein stability index (ubr1∆): 2.51 ± 0.097

Sequence: GRPETYIWRYLPAPPVC [RPO31]
- protein stability index (doa10∆): 1.5 ± 0.18
- protein stability index (pdr5∆): 1.57 ± 0.12
- protein stability index (san1∆): 1.17 ± 0.16
- protein stability index (ubr1∆): 2.02 ± 0.1

Sequence: GRPRYDTFGEGIIITDQ [BRR2]
- protein stability index (doa10∆): 3.02 ± 0.15
- protein stability index (pdr5∆): 2.85 ± 0.14
- protein stability index (san1∆): 2.62 ± 0.14
- protein stability index (ubr1∆): 3.11 ± 0.11

Sequence: GRSHTRNSTRSSGFNED [REC8]
- protein stability index (pdr5∆): 3.55 ± 0.23

Sequence: GRSNEIVKTTTKQRLDA [PRP8]
- protein stability index (doa10∆): 3.06 ± 0.073
- protein stability index (pdr5∆): 2.78 ± 0.11
- protein stability index (san1∆): 2.63 ± 0.13
- protein stability index (ubr1∆): 3.2 ± 0.052

Sequence: GSADIGASVISLTKDKS [SIR4]
- protein stability index (doa10∆): 3.01 ± 0.086
- protein stability index (pdr5∆): 3.12 ± 0.067
- protein stability index (san1∆): 2.92 ± 0.084
- protein stability index (ubr1∆): 3.21 ± 0.052

Sequence: GSAINHHRIFDSSAHFK [YMR129W/POM152]
- protein stability index (doa10∆): 2.57 ± 0.049
- protein stability index (pdr5∆): 2.46 ± 0.062
- protein stability index (san1∆): 2.64 ± 0.075
- protein stability index (ubr1∆): 2.71 ± 0.039

Sequence: GSDKQMFTQIYLERIEL [YML103C/NUP188]
- protein stability index (doa10∆): 2.5 ± 0.095
- protein stability index (pdr5∆): 2.36 ± 0.086
- protein stability index (san1∆): 1.62 ± 0.23
- protein stability index (ubr1∆): 1.53 ± 0.048

Sequence: GSENKRGSLDSEHVFDY [NUT1]
- protein stability index (doa10∆): 3.37 ± 0.14
- protein stability index (pdr5∆): 3.29 ± 0.11
- protein stability index (san1∆): 3.32 ± 0.2
- protein stability index (ubr1∆): 3.57 ± 0.05

Sequence: GSFKYITARSAFVEFGA [SWP82]
- protein stability index (doa10∆): 2.62 ± 0.11
- protein stability index (pdr5∆): 3.11 ± 0.074
- protein stability index (san1∆): 2.96 ± 0.069
- protein stability index (ubr1∆): 2.56 ± 0.056

Sequence: GSGAANENPYNNGVSNL [COR1]
- protein stability index (doa10∆): 3.02 ± 0.17
- protein stability index (pdr5∆): 2.94 ± 0.14
- protein stability index (san1∆): 3.15 ± 0.11
- protein stability index (ubr1∆): 2.79 ± 0.17

Sequence: GSGQPDNDTVVTNDDKS [SRB8]
- protein stability index (doa10∆): 3.08 ± 0.23
- protein stability index (pdr5∆): 3.29 ± 0.17
- protein stability index (san1∆): 2.52 ± 0.15

Sequence: GSKISSNDLDKFFQKKI [YGL172W/NUP49]
- protein stability index (doa10∆): 1.72 ± 0.069
- protein stability index (pdr5∆): 2.02 ± 0.076
- protein stability index (san1∆): 1.7 ± 0.074
- protein stability index (ubr1∆): 2.27 ± 0.057

Sequence: GSKSDGSAATSGFEFSK [RPN1]
- protein stability index (doa10∆): 2.7 ± 0.14
- protein stability index (pdr5∆): 3.09 ± 0.14
- protein stability index (san1∆): 2.72 ± 0.14
- protein stability index (ubr1∆): 3.1 ± 0.12

Sequence: GSRKVAGILRGYDIFLN [SMX2]
- protein stability index (doa10∆): 2.5 ± 0.11
- protein stability index (pdr5∆): 1.67 ± 0.08
- protein stability index (san1∆): 1.83 ± 0.15
- protein stability index (ubr1∆): 1.98 ± 0.099

Sequence: GSSKPAFSFGAKPDEKK [YJL041W/NSP1]
- protein stability index (doa10∆): 3.19 ± 0.17
- protein stability index (pdr5∆): 3.18 ± 0.14
- protein stability index (ubr1∆): 3.29 ± 0.17

Sequence: GSVSEETELFEPGVLNT [ECM29]
- protein stability index (doa10∆): 3.28 ± 0.16
- protein stability index (pdr5∆): 3 ± 0.087
- protein stability index (san1∆): 3.07 ± 0.096
- protein stability index (ubr1∆): 2.67 ± 0.083

Sequence: GTAIGAIGAQSIGEPGT [RPO31]
- protein stability index (doa10∆): 3.12 ± 0.11
- protein stability index (pdr5∆): 3.13 ± 0.092
- protein stability index (san1∆): 2.61 ± 0.14
- protein stability index (ubr1∆): 3.15 ± 0.059

Sequence: GTCFGGSKLEDMSKILV [RET1]
- protein stability index (doa10∆): 3.04 ± 0.074
- protein stability index (pdr5∆): 3.3 ± 0.096
- protein stability index (san1∆): 3.36 ± 0.065
- protein stability index (ubr1∆): 3.45 ± 0.056

Sequence: GTGKPEAIHDMFTYSQE [RPN2]
- protein stability index (doa10∆): 2.8 ± 0.16
- protein stability index (san1∆): 3.12 ± 0.071
- protein stability index (ubr1∆): 2.72 ± 0.11

Sequence: GTILSSAGDDGKVRLWK [YGL100W/SEH1]
- protein stability index (doa10∆): 3.27 ± 0.12
- protein stability index (pdr5∆): 3.51 ± 0.1
- protein stability index (san1∆): 3.49 ± 0.053
- protein stability index (ubr1∆): 3.38 ± 0.059

Sequence: GTLEGHNGWVTSLATSA [ASC1]
- protein stability index (doa10∆): 2.61 ± 0.063
- protein stability index (pdr5∆): 1.87 ± 0.069
- protein stability index (san1∆): 1.74 ± 0.15
- protein stability index (ubr1∆): 1.67 ± 0.066

Sequence: GTLLREDDNTPAGHAGN [YDL088C/ASM4]
- protein stability index (doa10∆): 3.03 ± 0.084
- protein stability index (pdr5∆): 2.79 ± 0.086
- protein stability index (san1∆): 3.09 ± 0.054
- protein stability index (ubr1∆): 3 ± 0.045

Sequence: GTNKDMILKLVCQVTKF [ECM29]
- protein stability index (doa10∆): 1.55 ± 0.058
- protein stability index (pdr5∆): 1.26 ± 0.037
- protein stability index (san1∆): 1.28 ± 0.13
- protein stability index (ubr1∆): 1.59 ± 0.077

Sequence: GTNNISQHGQGNNPSWV [YDL088C/ASM4]
- protein stability index (doa10∆): 3.01 ± 0.078
- protein stability index (pdr5∆): 3.39 ± 0.059
- protein stability index (san1∆): 3.3 ± 0.058
- protein stability index (ubr1∆): 3.12 ± 0.054

Sequence: GTSTTHGSISPQEESVS [SIR3]
- protein stability index (doa10∆): 2.14 ± 0.043
- protein stability index (pdr5∆): 2.56 ± 0.045
- protein stability index (san1∆): 2.43 ± 0.053
- protein stability index (ubr1∆): 2.48 ± 0.033

Sequence: GTVSRVNRLLSVIPLKG [RRP4]
- protein stability index (doa10∆): 1.25 ± 0.058
- protein stability index (pdr5∆): 1.38 ± 0.05
- protein stability index (san1∆): 1.2 ± 0.14
- protein stability index (ubr1∆): 1.23 ± 0.048

Sequence: GTYIQERNPTQRPQRRY [RPS10A]
- protein stability index (doa10∆): 3.01 ± 0.051
- protein stability index (pdr5∆): 3.1 ± 0.041
- protein stability index (san1∆): 3.07 ± 0.034
- protein stability index (ubr1∆): 3.14 ± 0.032

Sequence: GVAMNPVDHPHGGGNHQ [RPL2A]
- protein stability index (doa10∆): 2.9 ± 0.27
- protein stability index (ubr1∆): 3.25 ± 0.14

Sequence: GVCNHAFHLHCINKWIK [HRT1]
- protein stability index (doa10∆): 1.77 ± 0.045
- protein stability index (pdr5∆): 2.49 ± 0.04
- protein stability index (san1∆): 1.64 ± 0.068
- protein stability index (ubr1∆): 2.16 ± 0.042

Sequence: GVDLKLKYSKRRSLKKQ [CSN12]
- protein stability index (doa10∆): 2.89 ± 0.074
- protein stability index (pdr5∆): 2.75 ± 0.069
- protein stability index (san1∆): 3.27 ± 0.15
- protein stability index (ubr1∆): 3.05 ± 0.036

Sequence: GVEQLHYTGISQSACRE [SSN3]
- protein stability index (doa10∆): 2.69 ± 0.089
- protein stability index (pdr5∆): 2.38 ± 0.085
- protein stability index (san1∆): 2.66 ± 0.13
- protein stability index (ubr1∆): 2.56 ± 0.099

Sequence: GVGKRKVWLDPNETSEI [RPL19A]
- protein stability index (doa10∆): 3.13 ± 0.23
- protein stability index (pdr5∆): 3.69 ± 0.24
- protein stability index (ubr1∆): 3.04 ± 0.29

Sequence: GVTKGYKYKMRYVYAHF [RPL9A]
- protein stability index (doa10∆): 2.73 ± 0.14
- protein stability index (san1∆): 3.12 ± 0.12
- protein stability index (ubr1∆): 2.87 ± 0.16

Sequence: GVVQMVTDNKTPEMNVT [TAF14]
- protein stability index (doa10∆): 2.78 ± 0.16
- protein stability index (pdr5∆): 2.67 ± 0.22
- protein stability index (san1∆): 3.33 ± 0.092

Sequence: GVVRYVMESGAKGCEVV [RPS3]
- protein stability index (doa10∆): 1.29 ± 0.097
- protein stability index (pdr5∆): 1.67 ± 0.1
- protein stability index (ubr1∆): 1.34 ± 0.086

Sequence: GVWDVDNPLRQIPHFNN [BRR2]
- protein stability index (doa10∆): 3.26 ± 0.077
- protein stability index (pdr5∆): 3.24 ± 0.083
- protein stability index (san1∆): 3.26 ± 0.065
- protein stability index (ubr1∆): 3.13 ± 0.07

Sequence: GWKPYYKLFIWLVVPTI [YML031W/NDC1]
- protein stability index (doa10∆): 1.28 ± 0.049
- protein stability index (pdr5∆): 1.2 ± 0.044
- protein stability index (san1∆): 1.19 ± 0.09
- protein stability index (ubr1∆): 1.16 ± 0.044

Sequence: GYDIFLNVVLDDAMEIN [SMX2]
- protein stability index (doa10∆): 3.13 ± 0.064
- protein stability index (pdr5∆): 3.07 ± 0.075
- protein stability index (san1∆): 3.17 ± 0.054
- protein stability index (ubr1∆): 2.99 ± 0.06

Sequence: GYDKSGAHLLEFQPSGN [PRE5]
- protein stability index (doa10∆): 2.68 ± 0.25
- protein stability index (pdr5∆): 3.22 ± 0.18
- protein stability index (san1∆): 2.79 ± 0.21

Sequence: GYLIQVLLTFLQDELHK [YCS4]
- protein stability index (doa10∆): 2.97 ± 0.1
- protein stability index (pdr5∆): 2.02 ± 0.088
- protein stability index (san1∆): 2.01 ± 0.12
- protein stability index (ubr1∆): 3.24 ± 0.096

Sequence: GYQWGEENKDIMNVLSE [PRP8]
- protein stability index (doa10∆): 2.8 ± 0.22
- protein stability index (ubr1∆): 3.16 ± 0.24

Sequence: HAKRKTVTSLDVVYALK [HHF1]
- protein stability index (doa10∆): 3.54 ± 0.18
- protein stability index (pdr5∆): 3.57 ± 0.14
- protein stability index (san1∆): 3.19 ± 0.084
- protein stability index (ubr1∆): 3.12 ± 0.12

Sequence: HAMGGREGLIDTAVKTA [RPO21]
- protein stability index (doa10∆): 1.24 ± 0.076
- protein stability index (pdr5∆): 1.35 ± 0.065
- protein stability index (san1∆): 1.23 ± 0.15
- protein stability index (ubr1∆): 1.17 ± 0.054
